# In publication PMC11849118:
# T1: CFP-tagged hABHD5 (Human ABHD5-ECFP) (human), Q8WTS1
# T1 chain: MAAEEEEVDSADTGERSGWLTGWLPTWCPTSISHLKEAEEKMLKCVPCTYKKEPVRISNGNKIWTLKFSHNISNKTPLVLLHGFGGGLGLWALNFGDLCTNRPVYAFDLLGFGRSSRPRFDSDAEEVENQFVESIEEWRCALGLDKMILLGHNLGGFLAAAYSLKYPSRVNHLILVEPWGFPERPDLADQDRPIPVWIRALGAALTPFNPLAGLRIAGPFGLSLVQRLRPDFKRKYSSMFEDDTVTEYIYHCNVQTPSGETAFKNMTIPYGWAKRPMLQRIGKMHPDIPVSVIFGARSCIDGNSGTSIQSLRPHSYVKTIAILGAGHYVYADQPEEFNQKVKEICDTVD
# B1: WT hPNPLA3-EYFP, Q9NST1 1-481 (natural protein)
# chain: MYDAERGWSLSFAGCGFLGFYHVGATRCLSEHAPHLLRDARMLFGASAGALHCVGVLSGIPLEQTLQVLSDLVRKARSRNIGIFHPSFNLSKFLRQGLCKCLPANVHQLISGKIGISLTRVSDGENVLVSDFRSKDEVVDALVCSCFIPFYSGLIPPSFRGVRYVDGGVSDNVPFIDAKTTITVSPFYGEYDICPKVKSTNFLHVDITKLSLRLCTGNLYLLSRAFVPPDLKVLGEICLRGYLDAFRFLEEKGICNRPQPGLKSSSEGMDPEVAMPSWANMSLDSSPESAALAVRLEGDELLDHLRLSILPWDESILDTLSPRLATALSEEMKDKGGYMSKICNLLPIRIMSYVMLPCTLPVESAIAIVQRLVTWLPDMPDDVLWLQWVTSQVFTRVLMCLLPASRSQMPVSSQQASPCTPEQDWPCWTPCSPKGCPAETKAEATPRSILRSSLNFFLGNKVPAGAEGLSTFPSFSLEKSL
# Molecular target: T1, CFP-tagged hABHD5 (Human ABHD5-ECFP) …
# Experiment: fluorescence cross-correlation spectroscopy (FCCS); live cell dual color FCCS in transfected cells loaded with oleic acid overnight; excitation focused into the center of the cytoplasm; Fc = fraction of diffusers that are multicolored clusters
# Conditions: remark: other sources report otherwise
binder,measurement,value
B1,Fc (fraction of diffusers that are multicolored clusters of ABHD5 and PNPLA3),0.32
same,percent of ABHD5 codiffusing with PNPLA3,24%
same,percent of PNPLA3 codiffusing with ABHD5,78%
